Columns and labels:
Test in all cases: IP/MS, LZTR1 R810W-FLAG, U87
TUBGCP2 = TUBGCP2 (human, UniProt Q9BSJ2 1-902, limits assumed)
Method in brief: (§1)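 Extracted peptides in 3% acetonitrile/0.1% formic acid ran on a 50 cm C18 column into an Orbitrap Fusion, with MaxQuant identification and spectral counting.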

NCAPG2 = target: T1, NCAPG2 (human, UniProt Q86XI2 1-1143, limits assumed)
T1 sequence (looked up): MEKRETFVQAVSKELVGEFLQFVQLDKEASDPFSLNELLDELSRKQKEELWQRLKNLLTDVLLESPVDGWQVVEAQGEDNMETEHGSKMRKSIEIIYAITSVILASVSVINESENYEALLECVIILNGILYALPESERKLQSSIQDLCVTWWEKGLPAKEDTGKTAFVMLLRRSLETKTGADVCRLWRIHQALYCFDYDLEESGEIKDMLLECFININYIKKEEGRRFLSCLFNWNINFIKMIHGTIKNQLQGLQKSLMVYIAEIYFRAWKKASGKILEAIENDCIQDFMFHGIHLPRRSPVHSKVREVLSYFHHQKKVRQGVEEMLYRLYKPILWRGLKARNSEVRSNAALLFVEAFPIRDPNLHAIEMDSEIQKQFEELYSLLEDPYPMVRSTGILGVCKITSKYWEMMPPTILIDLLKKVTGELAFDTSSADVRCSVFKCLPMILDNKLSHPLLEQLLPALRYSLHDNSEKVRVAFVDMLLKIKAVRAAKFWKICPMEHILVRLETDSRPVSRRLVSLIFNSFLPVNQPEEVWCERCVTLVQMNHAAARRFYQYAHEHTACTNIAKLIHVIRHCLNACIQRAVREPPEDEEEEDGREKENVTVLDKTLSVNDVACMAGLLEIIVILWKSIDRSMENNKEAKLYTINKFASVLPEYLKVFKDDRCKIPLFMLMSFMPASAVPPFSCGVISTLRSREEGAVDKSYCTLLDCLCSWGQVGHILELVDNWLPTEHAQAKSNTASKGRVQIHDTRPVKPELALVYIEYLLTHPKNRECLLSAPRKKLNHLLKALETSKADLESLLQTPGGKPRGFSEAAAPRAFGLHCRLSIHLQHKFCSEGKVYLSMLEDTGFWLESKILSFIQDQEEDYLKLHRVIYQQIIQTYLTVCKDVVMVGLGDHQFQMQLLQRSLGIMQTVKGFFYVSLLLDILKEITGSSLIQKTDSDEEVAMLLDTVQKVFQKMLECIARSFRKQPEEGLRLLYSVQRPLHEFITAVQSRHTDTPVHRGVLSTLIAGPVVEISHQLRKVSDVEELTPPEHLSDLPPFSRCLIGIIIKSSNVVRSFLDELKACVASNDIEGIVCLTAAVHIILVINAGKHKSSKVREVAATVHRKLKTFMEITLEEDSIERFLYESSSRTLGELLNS
Method in brief: as §1

ABR = target: T2, ABR (human, UniProt Q12979 1-859, limits assumed)
T2 sequence (looked up): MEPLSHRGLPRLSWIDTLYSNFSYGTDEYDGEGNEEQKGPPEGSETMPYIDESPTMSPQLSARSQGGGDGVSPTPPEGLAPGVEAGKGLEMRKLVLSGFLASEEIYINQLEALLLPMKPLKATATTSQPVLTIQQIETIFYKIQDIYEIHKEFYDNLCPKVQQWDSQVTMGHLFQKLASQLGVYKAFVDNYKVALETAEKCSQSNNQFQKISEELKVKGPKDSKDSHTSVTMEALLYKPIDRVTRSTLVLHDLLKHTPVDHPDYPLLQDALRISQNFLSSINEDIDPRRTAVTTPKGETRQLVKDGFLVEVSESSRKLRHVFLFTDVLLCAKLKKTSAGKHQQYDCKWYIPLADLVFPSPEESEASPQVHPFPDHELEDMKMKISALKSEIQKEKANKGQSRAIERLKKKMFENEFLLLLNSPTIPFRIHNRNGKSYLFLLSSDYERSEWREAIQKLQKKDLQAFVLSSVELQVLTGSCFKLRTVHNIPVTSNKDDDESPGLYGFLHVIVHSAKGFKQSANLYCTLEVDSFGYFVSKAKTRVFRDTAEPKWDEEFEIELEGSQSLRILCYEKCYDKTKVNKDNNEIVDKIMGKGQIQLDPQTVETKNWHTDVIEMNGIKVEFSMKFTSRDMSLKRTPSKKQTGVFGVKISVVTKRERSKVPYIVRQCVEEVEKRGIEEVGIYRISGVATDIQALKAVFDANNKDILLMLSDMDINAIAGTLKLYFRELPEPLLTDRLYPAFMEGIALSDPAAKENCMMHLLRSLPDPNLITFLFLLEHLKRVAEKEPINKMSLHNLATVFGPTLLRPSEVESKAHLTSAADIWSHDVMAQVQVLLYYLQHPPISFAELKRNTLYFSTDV
Method in brief: as §1

RICTOR = RICTOR (human, UniProt Q6R327 1-1708, limits assumed)
Method in brief: as §1

TTI1 = TTI1 (human, UniProt O43156 1-1089)
Method in brief: as §1

RTTN = RTTN (human, UniProt Q86VV8 1-2226, limits assumed)
Method in brief: as §1

Measured: binding result

TUBGCP2, sequence (Q9BSJ2 whole entry, the tested form may be a part): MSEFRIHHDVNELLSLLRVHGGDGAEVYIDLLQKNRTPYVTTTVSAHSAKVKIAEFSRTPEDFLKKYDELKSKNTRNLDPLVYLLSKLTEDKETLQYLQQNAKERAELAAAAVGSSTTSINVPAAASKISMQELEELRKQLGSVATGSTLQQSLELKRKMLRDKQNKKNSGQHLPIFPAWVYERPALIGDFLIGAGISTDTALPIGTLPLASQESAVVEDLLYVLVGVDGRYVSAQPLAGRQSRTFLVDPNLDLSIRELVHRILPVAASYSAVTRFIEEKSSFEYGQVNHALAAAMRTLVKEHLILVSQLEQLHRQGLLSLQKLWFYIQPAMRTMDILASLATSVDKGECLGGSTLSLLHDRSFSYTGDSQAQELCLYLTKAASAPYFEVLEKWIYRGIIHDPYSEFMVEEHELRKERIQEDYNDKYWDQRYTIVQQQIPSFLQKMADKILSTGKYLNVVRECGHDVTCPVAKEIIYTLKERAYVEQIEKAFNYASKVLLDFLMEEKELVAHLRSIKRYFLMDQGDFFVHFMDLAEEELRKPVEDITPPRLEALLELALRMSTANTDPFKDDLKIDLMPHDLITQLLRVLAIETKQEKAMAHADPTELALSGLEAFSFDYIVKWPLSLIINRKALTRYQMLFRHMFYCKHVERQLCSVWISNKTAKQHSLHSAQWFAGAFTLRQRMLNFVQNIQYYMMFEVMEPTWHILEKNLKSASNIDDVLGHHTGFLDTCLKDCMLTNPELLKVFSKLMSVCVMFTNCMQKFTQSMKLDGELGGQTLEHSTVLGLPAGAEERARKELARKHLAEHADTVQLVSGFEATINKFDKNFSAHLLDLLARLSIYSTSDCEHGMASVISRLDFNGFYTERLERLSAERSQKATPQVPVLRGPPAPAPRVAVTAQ
RICTOR, sequence (Q6R327 whole entry): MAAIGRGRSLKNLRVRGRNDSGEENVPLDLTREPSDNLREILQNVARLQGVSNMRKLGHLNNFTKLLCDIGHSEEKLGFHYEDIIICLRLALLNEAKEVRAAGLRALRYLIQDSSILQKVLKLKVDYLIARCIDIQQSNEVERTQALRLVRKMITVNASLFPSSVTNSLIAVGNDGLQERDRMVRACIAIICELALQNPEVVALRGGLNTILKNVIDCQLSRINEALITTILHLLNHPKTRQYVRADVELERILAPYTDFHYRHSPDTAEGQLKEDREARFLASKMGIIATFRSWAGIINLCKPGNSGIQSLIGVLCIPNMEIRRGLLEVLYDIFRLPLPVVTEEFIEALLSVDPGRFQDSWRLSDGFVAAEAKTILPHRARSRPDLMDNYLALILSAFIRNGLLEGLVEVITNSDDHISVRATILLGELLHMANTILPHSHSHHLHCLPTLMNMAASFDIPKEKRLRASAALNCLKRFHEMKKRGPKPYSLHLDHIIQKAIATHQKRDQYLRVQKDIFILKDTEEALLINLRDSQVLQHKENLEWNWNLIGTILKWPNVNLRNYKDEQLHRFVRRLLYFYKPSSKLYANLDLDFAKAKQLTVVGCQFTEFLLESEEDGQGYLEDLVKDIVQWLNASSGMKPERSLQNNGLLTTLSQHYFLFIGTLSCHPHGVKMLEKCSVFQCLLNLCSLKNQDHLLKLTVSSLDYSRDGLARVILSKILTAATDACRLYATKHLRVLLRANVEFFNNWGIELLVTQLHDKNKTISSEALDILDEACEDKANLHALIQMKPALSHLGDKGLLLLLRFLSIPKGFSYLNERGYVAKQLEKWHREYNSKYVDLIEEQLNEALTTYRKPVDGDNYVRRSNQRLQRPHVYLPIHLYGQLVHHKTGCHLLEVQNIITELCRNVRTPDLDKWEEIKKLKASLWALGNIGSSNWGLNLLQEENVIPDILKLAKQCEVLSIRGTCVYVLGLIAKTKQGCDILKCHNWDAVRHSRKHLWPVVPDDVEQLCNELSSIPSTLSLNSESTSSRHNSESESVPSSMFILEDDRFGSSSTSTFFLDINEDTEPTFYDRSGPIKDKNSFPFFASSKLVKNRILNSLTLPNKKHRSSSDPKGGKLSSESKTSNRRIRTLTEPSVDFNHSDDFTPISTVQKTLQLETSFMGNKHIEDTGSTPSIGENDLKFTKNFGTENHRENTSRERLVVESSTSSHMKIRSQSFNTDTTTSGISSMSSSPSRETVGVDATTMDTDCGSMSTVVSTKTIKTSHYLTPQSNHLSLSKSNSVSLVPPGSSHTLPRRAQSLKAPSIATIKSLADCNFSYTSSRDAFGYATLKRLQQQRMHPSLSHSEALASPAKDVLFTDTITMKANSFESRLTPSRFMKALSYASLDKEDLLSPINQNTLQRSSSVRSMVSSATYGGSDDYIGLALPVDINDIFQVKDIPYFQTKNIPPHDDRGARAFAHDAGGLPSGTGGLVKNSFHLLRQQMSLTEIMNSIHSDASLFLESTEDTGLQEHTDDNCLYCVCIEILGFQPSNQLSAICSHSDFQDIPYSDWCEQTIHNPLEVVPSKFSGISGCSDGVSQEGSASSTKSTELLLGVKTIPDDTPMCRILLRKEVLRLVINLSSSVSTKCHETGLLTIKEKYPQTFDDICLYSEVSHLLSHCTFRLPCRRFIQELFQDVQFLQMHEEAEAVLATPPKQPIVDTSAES
RTTN, sequence (Q86VV8 whole entry): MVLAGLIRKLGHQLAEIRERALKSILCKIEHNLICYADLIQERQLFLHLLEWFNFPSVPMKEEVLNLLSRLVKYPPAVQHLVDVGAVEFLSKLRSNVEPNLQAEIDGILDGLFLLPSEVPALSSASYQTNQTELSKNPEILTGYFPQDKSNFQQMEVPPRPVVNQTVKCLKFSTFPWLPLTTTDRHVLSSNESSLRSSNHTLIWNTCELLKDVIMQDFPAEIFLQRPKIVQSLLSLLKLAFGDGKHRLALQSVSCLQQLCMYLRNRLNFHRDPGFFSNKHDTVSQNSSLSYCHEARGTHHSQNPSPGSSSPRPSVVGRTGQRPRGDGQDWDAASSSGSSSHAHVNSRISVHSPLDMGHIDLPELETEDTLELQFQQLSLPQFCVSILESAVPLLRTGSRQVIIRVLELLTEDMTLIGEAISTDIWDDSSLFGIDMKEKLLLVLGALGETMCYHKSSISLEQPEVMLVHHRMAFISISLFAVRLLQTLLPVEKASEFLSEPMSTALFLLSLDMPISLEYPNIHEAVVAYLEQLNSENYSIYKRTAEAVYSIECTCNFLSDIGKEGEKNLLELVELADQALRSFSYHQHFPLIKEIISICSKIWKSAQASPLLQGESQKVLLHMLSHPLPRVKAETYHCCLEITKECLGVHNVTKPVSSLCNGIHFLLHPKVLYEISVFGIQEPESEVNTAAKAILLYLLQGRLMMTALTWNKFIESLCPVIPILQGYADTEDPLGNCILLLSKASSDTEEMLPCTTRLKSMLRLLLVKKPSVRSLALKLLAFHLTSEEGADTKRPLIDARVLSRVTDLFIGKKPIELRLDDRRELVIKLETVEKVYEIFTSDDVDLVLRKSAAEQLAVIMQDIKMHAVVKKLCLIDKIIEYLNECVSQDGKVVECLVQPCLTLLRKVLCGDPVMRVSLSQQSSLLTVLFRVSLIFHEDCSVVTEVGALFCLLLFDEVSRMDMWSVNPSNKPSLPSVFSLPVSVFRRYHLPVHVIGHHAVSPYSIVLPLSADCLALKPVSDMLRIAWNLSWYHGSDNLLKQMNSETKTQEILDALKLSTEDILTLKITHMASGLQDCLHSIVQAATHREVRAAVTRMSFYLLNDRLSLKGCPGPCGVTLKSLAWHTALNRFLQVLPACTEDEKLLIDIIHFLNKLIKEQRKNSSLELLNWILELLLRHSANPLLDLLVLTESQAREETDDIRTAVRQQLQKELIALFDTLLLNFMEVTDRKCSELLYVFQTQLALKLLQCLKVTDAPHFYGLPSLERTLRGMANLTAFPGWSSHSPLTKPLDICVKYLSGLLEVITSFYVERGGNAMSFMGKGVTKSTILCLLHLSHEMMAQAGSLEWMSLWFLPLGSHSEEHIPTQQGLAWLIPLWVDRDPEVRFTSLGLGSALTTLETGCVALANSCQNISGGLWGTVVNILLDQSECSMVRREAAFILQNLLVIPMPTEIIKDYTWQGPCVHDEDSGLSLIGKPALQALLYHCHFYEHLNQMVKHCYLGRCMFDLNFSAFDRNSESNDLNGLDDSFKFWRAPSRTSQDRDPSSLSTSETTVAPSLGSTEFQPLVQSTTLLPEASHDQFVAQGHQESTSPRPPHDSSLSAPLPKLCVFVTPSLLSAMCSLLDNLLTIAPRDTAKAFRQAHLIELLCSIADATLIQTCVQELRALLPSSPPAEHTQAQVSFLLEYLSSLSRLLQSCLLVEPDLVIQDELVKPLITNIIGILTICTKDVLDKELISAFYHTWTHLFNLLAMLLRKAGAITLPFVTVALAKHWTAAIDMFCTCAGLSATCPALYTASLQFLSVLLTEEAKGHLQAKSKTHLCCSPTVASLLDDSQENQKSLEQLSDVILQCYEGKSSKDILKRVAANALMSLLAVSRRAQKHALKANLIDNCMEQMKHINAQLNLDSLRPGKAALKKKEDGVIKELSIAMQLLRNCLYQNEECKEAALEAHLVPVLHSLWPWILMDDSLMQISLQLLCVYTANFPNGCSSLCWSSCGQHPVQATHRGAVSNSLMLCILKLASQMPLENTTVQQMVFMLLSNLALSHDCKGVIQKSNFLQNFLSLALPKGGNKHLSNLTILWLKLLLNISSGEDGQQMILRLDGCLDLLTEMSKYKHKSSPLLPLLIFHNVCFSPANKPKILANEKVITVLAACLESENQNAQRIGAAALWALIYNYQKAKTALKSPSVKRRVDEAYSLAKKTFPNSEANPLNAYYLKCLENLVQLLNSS

B1: LZTR1 R810W-FLAG (other, human, UniProt Q8N653 1-840, looked up)
chain: MAGPGSTGGQIGAAALAGGARSKVAPSVDFDHSCSDSVEYLTLNFGPFETVHRWRRLPPCDEFVGARRSKHTVVAYKDAIYVFGGDNGKTMLNDLLRFDVKDCSWCRAFTTGTPPAPRYHHSAVVYGSSMFVFGGYTGDIYSNSNLKNKNDLFEYKFATGQWTEWKIEGRLPVARSAHGATVYSDKLWIFAGYDGNARLNDMWTIGLQDRELTCWEEVAQSGEIPPSCCNFPVAVCRDKMFVFSGQSGAKITNNLFQFEFKDKTWTRIPTEHLLRGSPPPPQRRYGHTMVAFDRHLYVFGGAADNTLPNELHCYDVDFQTWEVVQPSSDSEVGGAEVPERACASEEVPTLTYEERVGFKKSRDVFGLDFGTTSAKQPTQPASELPSGRLFHAAAVISDAMYIFGGTVDNNIRSGEMYRFQFSCYPKCTLHEDYGRLWESRQFCDVEFVLGEKEECVQGHVAIVTARSRWLRRKITQARERLAQKLEQEAAPVPREAPGVAAGGARPPLLHVAIREAEARPFEVLMQFLYTDKIKYPRKGHVEDVLLIMDVYKLALSFQLCRLEQLCRQYIEASVDLQNVLVVCESAARLQLSQLKEHCLNFVVKESHFNQVIMMKEFERLSSPLIVEIVRRKQQPPPRTPLDQPVDIGTSLIQDMKAYLEGAGAEFCDITLLLDGHPRPAHKAILAARSSYFEAMFRSFMPEDGQVNISIGEMVPSRQAFESMLRYIYYGEVNMPPEDSLYLFAAPYYYGFYNNRLQAYCKQNLEMNVTVQNVLQILEAADKTQALDMKRHCLHIIVHQFTKVSKLPTLWSLSQQLLLDIIDSLASHISDKQCAELGADI
notes: Stably expressed in U87 cells by lentivirus; also called LZTR1-FLAG-R810W; LZTR1 RW; not shown: FLAG tag
binds: TUBGCP2 | NCAPG2 | ABR | RICTOR | TTI1 | RTTN

Reference: patent US20250262210A1 (TRUSTEES OF COLUMBIA UNIVERSITY IN THE CITY OF NEW YORK, published 2025)
